Laboratory results taken from patent US20250339531A1, “DUX4 POLYPEPTIDES AND NUCLEIC ACIDS FOR TREATING INFLAMMATORY AND AUTOIMMUNE CONDITIONS” (Fred Hutchinson Cancer Center, priority 2021, published 2025).

Experiments:
[1] = tested on: interferon-stimulated genes IFIH1, ISG20, CXCL9, and CD74; assay: IFNG induction of interferon-stimulated genes, RT-qPCR in MB135 cells with doxycycline-inducible transgenes; assay type: cell-based, human; settings: MB135 cells, doxycycline-induced transgene, continuous protocol, IFNG 16 h
Procedure: All myoblast experiments were conducted in immortalized MB135 or MB200 myoblast cell lines (isolated from a control or FSHD2 subject, respectively cultured in Ham's F-10 Nutrient Mix (Gibco) supplemented with 15% fetal bovine serum (Hyclone), 100 U/100 μg/ml penicillin/streptomycin (Gibco), 1 μM dexamethasone (Sigma), and 10 ng/ml recombinant human basic fibroblast growth factor (PeproTech). To differentiate the myoblasts to myotubes, media was changed to DMEM supplemented with 10 μg/ml insulin (Sigma) and 10 μg/ml transferrin (Sigma). Cell lines containing doxycycline-inducible transgenes were additionally cultured with 2 μg/mL puromycin (Sigma). Transgenes were induced with 1 μg/mL of doxycycline (Sigma) for 4 hours prior to other treatments for a total of 20 hrs. The Kitra-SRS cells (RRID:CVCL_YI69) were provided by Dr. H. Otani and Osaka University (Nakai et al., 2019) and were cultured in DMEM supplemented with 10% fetal bovine serum (Hyclone) and 100 U/100 μg/ml penicillin/streptomycin (Gibco). Biological replicates consisted of independent but parallel experiments, such as simultaneously stimulating three cell culture plates with IFNγ. Technical replicates consisted of repeat measurements of the same biological sample, such as loading the same biological sample in triplicate for analysis by RT-qPCR.
Myoblasts were transfected with either (final concentrations) 10 μM 2′,3′-cGAMP (Sigma Aldrich), 2 μg/mL poly(I:C) (Invitrogen), or 1 μg/mL 3′ppp-dsRNA RIG-I ligand (Dan Stetson Lab, UW) using Lipofectamine 2000 according to manufacturer's protocol, or were stimulated with 1000U IFNβ (PeproTech) or 200 ng/ml IFNγ (R+D Systems) by addition directly to cell culture medium. After 16 hours of immune stimulation, RNA was collected from cells using the NucleoSpin RNA Kit (Macherey-Nagel) according to manufacturer's instructions. RNA samples were quantified by nanodrop and 1 μg of RNA per sample was treated with DNase I Amplification Grade (Thermo Fisher), and then synthesized into cDNA using the Superscript IV First-Strand Synthesis System, including oligo dT primers (Invitrogen). qPCR was run in 384-well plates on an Applied Biosystems QuantStudio 6 Flex Real-Time PCR System (ABI) and analyzed in Microsoft Excel.

pSTAT1-Y701, pSTAT1-S727 = target: T1, pSTAT1-Y701, pSTAT1-S727 (Homo sapiens, UniProt P42224); assay: Western analysis of whole-cell extracts for STAT1 and pSTAT1; assay type: cell-based; settings: doxycycline and IFNG
T1 construct: co-localization of endogenous STAT1 and pSTAT1 701 with the iDUX4-CTD; endogenous in cells; host or cells: MB135 human myoblasts carrying doxycycline-inducible DUX4 / DUX4-CTD / DUXB / Dux transgenes, with or without IFNG
T1 sequence (P42224 1-750): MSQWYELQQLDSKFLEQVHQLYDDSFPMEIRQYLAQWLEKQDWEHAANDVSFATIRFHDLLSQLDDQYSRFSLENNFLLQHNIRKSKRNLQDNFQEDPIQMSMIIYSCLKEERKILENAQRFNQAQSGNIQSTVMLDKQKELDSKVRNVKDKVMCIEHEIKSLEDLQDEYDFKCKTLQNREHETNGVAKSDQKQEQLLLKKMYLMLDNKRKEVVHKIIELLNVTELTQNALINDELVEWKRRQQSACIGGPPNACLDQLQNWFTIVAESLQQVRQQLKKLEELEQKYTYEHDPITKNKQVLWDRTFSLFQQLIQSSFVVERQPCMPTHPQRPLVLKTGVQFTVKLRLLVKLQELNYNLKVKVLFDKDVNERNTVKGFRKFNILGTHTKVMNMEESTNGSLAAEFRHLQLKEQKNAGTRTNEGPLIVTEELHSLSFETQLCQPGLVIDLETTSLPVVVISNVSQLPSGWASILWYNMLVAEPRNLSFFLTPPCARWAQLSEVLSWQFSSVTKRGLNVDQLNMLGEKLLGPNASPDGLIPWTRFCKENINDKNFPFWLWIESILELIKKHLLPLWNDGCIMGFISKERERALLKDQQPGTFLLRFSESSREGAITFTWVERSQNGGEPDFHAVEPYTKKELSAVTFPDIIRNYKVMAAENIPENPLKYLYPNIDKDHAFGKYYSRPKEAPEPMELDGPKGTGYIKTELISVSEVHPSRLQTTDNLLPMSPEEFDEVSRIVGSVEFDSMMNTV
Procedure: Protein samples were harvested in RIPA buffer [150 mM NaCl, 1% NP-40, 0.5% Na-deocycholate, 1% SDS, 25 mM Tris-HCl pH7.4] supplemented with protease and phosphatase inhibitor tablets (Pierce), followed by sonication in Diagenode Bioruptor. Lysate was cleared by centrifugation at 16000×g and quantified using a Pierce BCA assay (Thermo Fisher Scientific). Samples were run on NuPAGE precast polyacrylamide gels (Invitrogen) and transferred to PVDF membrane. Membranes were blocked in PBS containing 0.1% Tween-20 and 5% non-fat dry milk before overnight incubation at 4° C. with primary antibodies (see resource table for a list of antibodies used in this study). Membranes were incubated with horseradish peroxidase-conjugated secondary antibodies for 1 hour at room temperature and SuperSignal chemiluminescent substrate (Thermo Scientific) was used for detection on film with a Mini-medical 90 processor. Membranes were stripped with Restore Western Blot Stripping Buffer (Pierce).

B1: DUXB: related factor in the DUX family, doxycycline-inducible 3×FLAG-NLS-DUXB control, SEQ ID NO:106 (protein)
chain: DYKDHDGDYKDHDIDYKDDDDKPPKRMRREPKKKRKVNLEGTSGGILQKEFWRNRIQYNQSQKDILQSWFQHDPFPDKAAREQLAKEIGVPESNIQVWFKNYRVKQRKLDYKCFSEKDQTQGHDQSQHLTQEYLPKEARQKQTFITWTQKNRLVQAFERNPFPDIATRKKLAEQTGLQESRIQMWFQKQRSLYLKKSRMEPMNLLVDDPNERPDATVGWHPINLFLPTDSSHYFSCSHSSSGHETLPPVLPSTQAPWDPFRFHVSQGPNVMIMQPTQAVQEGEKSDQPLIIPNHLLTLPILTKDLDTPTPFWLQYQEEHQNHKEHSGSGVPQVKSHSQPEPEHREQQPLNLGQFDISNILQRWDEICQALLAEWEPLKGTH
modifications: 3xFLAG-NLS tag
For B1, the “suppression of IFNG induction of ISGs (IFIH1, ISG20, CXCL9, CD74)” value [1] was “did not suppress ISG induction by IFNG” and the “abundance of pSTAT1 and total STAT1” value (pSTAT1-Y701, pSTAT1-S727) was “did not increase either form of phosphorylated STAT1”.
